The numbers were not newly measured in article PMC5904255, which cites them from elsewhere.

As a reminder, the Kd is the concentration at which binding is half-saturated.

In this series the target is C1q (Homo sapiens) (UniProt P02745).
Sequence of C1q (Homo sapiens) (P02745 23-245, chain 1 of 3): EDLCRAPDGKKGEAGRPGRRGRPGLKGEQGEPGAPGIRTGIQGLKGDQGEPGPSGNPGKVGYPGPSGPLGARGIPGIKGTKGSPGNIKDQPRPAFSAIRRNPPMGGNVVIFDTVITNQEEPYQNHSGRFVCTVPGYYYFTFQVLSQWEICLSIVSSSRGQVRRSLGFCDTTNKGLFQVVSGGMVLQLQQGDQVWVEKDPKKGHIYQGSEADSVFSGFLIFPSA
Sequence of C1q (Homo sapiens) (P02746 28-253, chain 2 of 3, further chain): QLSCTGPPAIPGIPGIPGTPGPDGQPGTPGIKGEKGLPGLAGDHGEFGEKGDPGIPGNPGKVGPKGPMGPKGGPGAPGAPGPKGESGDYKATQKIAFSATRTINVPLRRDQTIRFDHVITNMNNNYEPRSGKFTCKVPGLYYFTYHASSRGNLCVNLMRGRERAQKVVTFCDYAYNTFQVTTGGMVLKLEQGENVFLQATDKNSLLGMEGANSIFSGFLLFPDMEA
Sequence of C1q (Homo sapiens) (P02747 29-245, chain 3 of 3, further chain): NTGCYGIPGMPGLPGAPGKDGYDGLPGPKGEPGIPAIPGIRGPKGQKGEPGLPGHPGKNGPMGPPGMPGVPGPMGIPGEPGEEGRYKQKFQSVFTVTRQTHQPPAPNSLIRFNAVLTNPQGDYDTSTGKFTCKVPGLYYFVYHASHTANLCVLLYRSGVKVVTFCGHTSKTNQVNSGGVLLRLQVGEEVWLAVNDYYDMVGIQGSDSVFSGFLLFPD

Sequence of HMGB1 (P09429 whole entry): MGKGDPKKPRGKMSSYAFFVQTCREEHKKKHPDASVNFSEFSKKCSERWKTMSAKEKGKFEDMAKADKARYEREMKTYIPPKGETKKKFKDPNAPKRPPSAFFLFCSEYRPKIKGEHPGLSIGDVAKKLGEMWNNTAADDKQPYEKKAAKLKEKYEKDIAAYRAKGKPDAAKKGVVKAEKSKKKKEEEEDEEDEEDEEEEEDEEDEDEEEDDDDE

In the case of HMGB1 (from UniProt P09429), the Kd was 0.2 µM.
